Data set [1] addresses T1, CREB 285bZIP wild type (pseudo-WT, Cys to Ser) (human, UniProt P16220-1 285-339, C300S;C310S;C337S).
T1 sequence: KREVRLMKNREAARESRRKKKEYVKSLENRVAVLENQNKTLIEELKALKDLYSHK
In words: stopped-flow fluorescence (koff/kon); koff 2.531 s-1; kon 6.7 nM-1 s-1; 10 mM Mg2+; 10 mM MES pH 6.5, 150 mM NaCl, 10 mM MgCl2, 0.05% Tween-20, 25 C; NMR: 10 mM Tris-d11, 150 mM NaCl, 10 mM MgCl2, 1 mM NaN3, 5% D2O (NOE at 25 C). The settings on record: protein: recombinant; tags: extra N-terminal Gly after TEV cleavage; His6-GB1 removed; chain copies: 2; label: 5' Alexa Fluor 488; hairpin (self-annealing, 11 bp stem, CCCC loop).

The target of another data set is T2, 285bZIP K309A (human, UniProt P16220-1 285-339, C300S;C310S;C337S;K309A).
T2 sequence: T1 sequence with K25A
In words: stopped-flow fluorescence (koff/kon); 10 mM Mg2+; 10 mM MES pH 6.5, 150 mM NaCl, 10 mM MgCl2, 0.05% Tween-20, 25 C; NMR: 10 mM Tris-d11, 150 mM NaCl, 10 mM MgCl2, 1 mM NaN3, 5% D2O (NOE at 25 C). The settings on record: protein: recombinant; tags: extra N-terminal Gly; chain copies: 2; label: 5' Alexa Fluor 488; hairpin (self-annealing, 11 bp stem, CCCC loop).

The target in the next data set is T3, 285bZIP M291A (human, UniProt P16220-1 285-339, C300S;C310S;C337S;M291A).
T3 sequence: T1 sequence with M7A
Described as above. To be noted: protein: recombinant; tags: extra N-terminal Gly; chain copies: 2; label: 5' Alexa Fluor 488; hairpin (self-annealing, 11 bp stem, CCCC loop).

A further data set concerns the target T4, 285bZIP E295G (human, UniProt P16220-1 285-339, C300S;C310S;C337S;E295G).
T4 sequence: T1 sequence with E11G
Described as above. The settings on record: protein: recombinant; tags: extra N-terminal Gly; chain copies: 2; label: 5' Alexa Fluor 488; hairpin (self-annealing, 11 bp stem, CCCC loop).

The target in the next data set is T5, 285bZIP E299A (human, UniProt P16220-1 285-339, C300S;C310S;C337S;E299A).
T5 sequence: T1 sequence with E15A
Described as above. The settings on record: protein: recombinant; tags: extra N-terminal Gly; chain copies: 2; label: 5' Alexa Fluor 488; hairpin (self-annealing, 11 bp stem, CCCC loop).

The target of a further data set is T6, 285bZIP R302A (human, UniProt P16220-1 285-339, C300S;C310S;C337S;R302A).
T6 sequence: T1 sequence with R18A
The description is as above. The settings on record: protein: recombinant; tags: extra N-terminal Gly; chain copies: 2; label: 5' Alexa Fluor 488; hairpin (self-annealing, 11 bp stem, CCCC loop).

The next data set concerns the target T7, 285bZIP E287G (human, UniProt P16220-1 285-339, C300S;C310S;C337S;E287G).
T7 sequence: T1 sequence with E3G
Described as above. To be noted: protein: recombinant; tags: extra N-terminal Gly; chain copies: 2; label: 5' Alexa Fluor 488; hairpin (self-annealing, 11 bp stem, CCCC loop).

A further data set has as its target T8, 285bZIP E295A (human, UniProt P16220-1 285-339, C300S;C310S;C337S;E295A).
T8 sequence: T1 sequence with E11A
Described as above. The settings on record: protein: recombinant; tags: extra N-terminal Gly; chain copies: 2; label: 5' Alexa Fluor 488; hairpin (self-annealing, 11 bp stem, CCCC loop).

In a further data set the target is T9, 285bZIP E295A/E299A (human, UniProt P16220-1 285-339, C300S;C310S;C337S;E295A;E299A).
T9 sequence: T1 sequence with E11A, E15A
The description is as above. To be noted: protein: recombinant; tags: extra N-terminal Gly; chain copies: 2; label: 5' Alexa Fluor 488; hairpin (self-annealing, 11 bp stem, CCCC loop).

Positions count from the first letter of the chain named.

B1: AlexaFluor488-CREh (structured_DNA)
DNA: CCTGACGTCAGCCCCCTGACGTCAGG
As to B1, the equilibrium dissociation constant (Kd) amounted to 0.38 ± 0.03 nM in data set [1]; 2.12 ± 0.08 nM in the data set with 285bZIP K309A; 0.31 ± 0.03 nM in the data set with 285bZIP M291A; 6 ± 0.4 nM with 285bZIP E295G; 0.0711 ± 0.0011 nM with 285bZIP E299A; 13.9 ± 1.8 nM with 285bZIP R302A. Further, the figures for the Kd with 285bZIP E287G, with 285bZIP E295A and with 285bZIP E295A/E299A were 4.6 ± 0.6 nM, 0.239 ± 0.016 nM and 0.102 ± 0.008 nM, respectively.

Source of the values: paper PMC11514473, “The transition state for coupled folding and binding of a disordered DNA binding domain resembles the unbound state” (Nucleic Acids Research, 2024).
